Experimental data published in article PMC9482650, “Quantitative fragmentomics allow affinity mapping of interactomes” (Nature Communications, 2022).

Biological target: T1, SHROOM4, Q9ULL8
T1 sequence (Q9ULL8 5-102, limits assumed, looked up): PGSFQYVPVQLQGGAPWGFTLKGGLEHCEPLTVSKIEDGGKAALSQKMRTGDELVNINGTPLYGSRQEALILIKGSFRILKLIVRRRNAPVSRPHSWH
Assay: holdup assay
Design: key: below the threshold = too weak to quantify, mostly under pKd 3.1 to 4
Settings: plain residues with an end cap or a label only (N-terminal biotin on a linker: ttds)

Binder | pKd
SGSRPSATVV [HPV73-E6, Q82005] | below the threshold
RHTTSTETAV [HPV30-E6, P36809] | 4.73

Biological target: T2, MPDZ_2, O75970
T2 sequence (O75970 252-347, limits assumed, looked up): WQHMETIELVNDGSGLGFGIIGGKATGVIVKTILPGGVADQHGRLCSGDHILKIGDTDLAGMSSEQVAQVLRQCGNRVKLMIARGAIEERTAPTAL
Assay: holdup assay
Design: key: below the threshold = too weak to quantify, mostly under pKd 3.1 to 4
Settings: plain residues with an end cap or a label only (N-terminal biotin on a linker: ttds)

Binder | pKd
RHTTSTETAV [HPV30-E6, P36809] | below the threshold

Biological target: T3, PDZD2_4, O15018
T3 sequence (O15018 723-823, limits assumed, looked up): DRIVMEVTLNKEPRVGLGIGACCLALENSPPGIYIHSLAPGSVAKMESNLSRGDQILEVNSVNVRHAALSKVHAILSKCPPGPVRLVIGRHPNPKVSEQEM
Assay: holdup assay
Design: key: below the threshold = too weak to quantify, mostly under pKd 3.1 to 4
Settings: plain residues with an end cap or a label only (N-terminal biotin on a linker: ttds)

Binder | pKd
SGSRPSATVV [HPV73-E6, Q82005] | 4.26
RHTTSTETAV [HPV30-E6, P36809] | 4.78

Biological target: T4, CNKSR1, Q969H4
T4 sequence (Q969H4 191-295, limits assumed, looked up): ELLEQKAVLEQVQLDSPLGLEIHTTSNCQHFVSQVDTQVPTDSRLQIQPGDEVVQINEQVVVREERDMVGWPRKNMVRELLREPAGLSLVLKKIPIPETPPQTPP
Assay: holdup assay
Design: key: below the threshold = too weak to quantify, mostly under pKd 3.1 to 4
Settings: plain residues with an end cap or a label only (N-terminal biotin on a linker: ttds)

Binder | pKd
SGSRPSATVV [HPV73-E6, Q82005] | below the threshold
RHTTSTETAV [HPV30-E6, P36809] | below the threshold

Biological target: T5, PDZD8, Q8NEN9
T5 sequence (Q8NEN9 361-459, limits assumed, looked up): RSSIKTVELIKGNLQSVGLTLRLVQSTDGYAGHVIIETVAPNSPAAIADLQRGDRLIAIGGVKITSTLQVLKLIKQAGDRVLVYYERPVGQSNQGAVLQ
Assay: holdup assay
Design: key: below the threshold = too weak to quantify, mostly under pKd 3.1 to 4
Settings: plain residues with an end cap or a label only (N-terminal biotin on a linker: ttds)

Binder | pKd
SGSRPSATVV [HPV73-E6, Q82005] | 4.04
RHTTSTETAV [HPV30-E6, P36809] | below the threshold

Biological target: T6, APBA3_2, O96018
T6 sequence (O96018 480-570, limits assumed, looked up): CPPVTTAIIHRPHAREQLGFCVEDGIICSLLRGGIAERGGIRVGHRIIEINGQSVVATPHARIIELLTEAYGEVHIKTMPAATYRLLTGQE
Assay: holdup assay
Design: key: below the threshold = too weak to quantify, mostly under pKd 3.1 to 4
Settings: plain residues with an end cap or a label only (N-terminal biotin on a linker: ttds)

Binder | pKd
SGSRPSATVV [HPV73-E6, Q82005] | below the threshold
RHTTSTETAV [HPV30-E6, P36809] | below the threshold

Biological target: PARD3_1, Q8TEW0
Sequence (Q8TEW0 264-372): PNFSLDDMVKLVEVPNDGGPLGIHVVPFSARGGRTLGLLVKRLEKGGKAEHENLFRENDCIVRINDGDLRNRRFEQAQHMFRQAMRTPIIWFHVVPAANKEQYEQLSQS
Assay: holdup assay
Design: key: below the threshold = too weak to quantify, mostly under pKd 3.1 to 4
Settings: plain residues with an end cap or a label only (N-terminal biotin on a linker: ttds)

Binder | pKd
SGSRPSATVV [HPV73-E6, Q82005] | below the threshold
RHTTSTETAV [HPV30-E6, P36809] | below the threshold

Biological target: PREX1_1, Q8TCU6
Sequence (Q8TCU6 608-718): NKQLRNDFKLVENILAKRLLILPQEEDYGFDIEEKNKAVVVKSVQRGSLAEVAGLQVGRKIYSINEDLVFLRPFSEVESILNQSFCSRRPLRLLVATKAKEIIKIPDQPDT
Assay: holdup assay
Design: key: below the threshold = too weak to quantify, mostly under pKd 3.1 to 4
Settings: plain residues with an end cap or a label only (N-terminal biotin on a linker: ttds)

Binder | pKd
SGSRPSATVV [HPV73-E6, Q82005] | below the threshold
RHTTSTETAV [HPV30-E6, P36809] | below the threshold

Biological target: LMO7, Q8WWI1
Sequence (Q8WWI1 1037-1138): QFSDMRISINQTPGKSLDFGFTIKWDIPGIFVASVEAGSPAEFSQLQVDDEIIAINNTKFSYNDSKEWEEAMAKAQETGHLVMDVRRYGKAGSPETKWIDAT
Assay: holdup assay
Design: key: below the threshold = too weak to quantify, mostly under pKd 3.1 to 4
Settings: plain residues with an end cap or a label only (N-terminal biotin on a linker: ttds)

Binder | pKd
SGSRPSATVV [HPV73-E6, Q82005] | below the threshold
RHTTSTETAV [HPV30-E6, P36809] | below the threshold

Biological target: PDZRN4_2, Q6ZMN7
Sequence (Q6ZMN7 389-498): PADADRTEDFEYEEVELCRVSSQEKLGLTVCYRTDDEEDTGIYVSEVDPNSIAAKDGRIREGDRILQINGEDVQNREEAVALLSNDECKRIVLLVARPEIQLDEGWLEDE
Assay: holdup assay
Design: key: below the threshold = too weak to quantify, mostly under pKd 3.1 to 4
Settings: plain residues with an end cap or a label only (N-terminal biotin on a linker: ttds)

Binder | pKd
SGSRPSATVV [HPV73-E6, Q82005] | below the threshold
RHTTSTETAV [HPV30-E6, P36809] | 4.48

Biological target: T7, PDZD2_3, O15018
T7 sequence (O15018 581-682, limits assumed, looked up): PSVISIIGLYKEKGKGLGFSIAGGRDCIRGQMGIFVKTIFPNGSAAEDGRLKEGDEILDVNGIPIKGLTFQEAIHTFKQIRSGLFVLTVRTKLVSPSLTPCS
Assay: holdup assay
Design: key: below the threshold = too weak to quantify, mostly under pKd 3.1 to 4
Settings: plain residues with an end cap or a label only (N-terminal biotin on a linker: ttds)

Binder | pKd
SGSRPSATVV [HPV73-E6, Q82005] | below the threshold
RHTTSTETAV [HPV30-E6, P36809] | below the threshold

Biological target: T8, PDZRN3_2, Q9UPQ7
T8 sequence (Q9UPQ7 414-513, limits assumed, looked up): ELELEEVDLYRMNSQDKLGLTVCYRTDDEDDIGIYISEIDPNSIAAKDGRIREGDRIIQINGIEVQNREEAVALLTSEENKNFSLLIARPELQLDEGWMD
Assay: holdup assay
Design: key: below the threshold = too weak to quantify, mostly under pKd 3.1 to 4
Settings: plain residues with an end cap or a label only (N-terminal biotin on a linker: ttds)

Binder | pKd
SGSRPSATVV [HPV73-E6, Q82005] | below the threshold
RHTTSTETAV [HPV30-E6, P36809] | below the threshold

Biological target: GIPC3, Q8TF64
Sequence (Q8TF64 107-202): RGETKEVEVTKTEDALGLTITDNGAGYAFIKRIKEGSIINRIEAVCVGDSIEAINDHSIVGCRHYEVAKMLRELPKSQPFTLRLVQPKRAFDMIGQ
Assay: holdup assay
Design: key: below the threshold = too weak to quantify, mostly under pKd 3.1 to 4
Settings: plain residues with an end cap or a label only (N-terminal biotin on a linker: ttds)

Binder | pKd
SGSRPSATVV [HPV73-E6, Q82005] | below the threshold
RHTTSTETAV [HPV30-E6, P36809] | below the threshold

Biological target: T9, SIPA1L3, O60292
T9 sequence (O60292 961-1052, limits assumed, looked up): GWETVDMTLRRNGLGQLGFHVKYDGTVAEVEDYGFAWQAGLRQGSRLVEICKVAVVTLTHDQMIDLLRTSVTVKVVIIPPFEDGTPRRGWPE
Assay: holdup assay
Design: key: below the threshold = too weak to quantify, mostly under pKd 3.1 to 4
Settings: plain residues with an end cap or a label only (N-terminal biotin on a linker: ttds)

Binder | pKd
SGSRPSATVV [HPV73-E6, Q82005] | 4.17
RHTTSTETAV [HPV30-E6, P36809] | below the threshold

Biological target: T10, PREX2_2, Q70Z35
T10 sequence (Q70Z35 672-764, limits assumed, looked up): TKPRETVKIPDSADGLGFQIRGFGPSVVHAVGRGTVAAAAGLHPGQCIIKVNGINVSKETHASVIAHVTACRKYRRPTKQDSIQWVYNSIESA
Assay: holdup assay
Design: key: below the threshold = too weak to quantify, mostly under pKd 3.1 to 4
Settings: plain residues with an end cap or a label only (N-terminal biotin on a linker: ttds)

Binder | pKd
SGSRPSATVV [HPV73-E6, Q82005] | below the threshold
RHTTSTETAV [HPV30-E6, P36809] | below the threshold

Biological target: T11, GRIP1_1, Q9Y3R0
T11 sequence (Q9Y3R0 48-146, limits assumed, looked up): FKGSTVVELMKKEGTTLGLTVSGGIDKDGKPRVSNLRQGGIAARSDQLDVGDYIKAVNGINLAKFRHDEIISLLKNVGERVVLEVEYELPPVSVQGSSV
Assay: holdup assay
Design: key: below the threshold = too weak to quantify, mostly under pKd 3.1 to 4
Settings: plain residues with an end cap or a label only (N-terminal biotin on a linker: ttds)

Binder | pKd
SGSRPSATVV [HPV73-E6, Q82005] | below the threshold
RHTTSTETAV [HPV30-E6, P36809] | 4.59

Biological target: T12, SYNPO2L, Q9H987
T12 sequence (Q9H987 1-98, limits assumed, looked up): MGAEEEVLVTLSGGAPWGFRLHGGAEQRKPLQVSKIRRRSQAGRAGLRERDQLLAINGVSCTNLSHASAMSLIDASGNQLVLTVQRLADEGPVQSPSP
Assay: holdup assay
Design: key: below the threshold = too weak to quantify, mostly under pKd 3.1 to 4
Settings: plain residues with an end cap or a label only (N-terminal biotin on a linker: ttds)

Binder | pKd
SGSRPSATVV [HPV73-E6, Q82005] | below the threshold
RHTTSTETAV [HPV30-E6, P36809] | below the threshold

Biological target: T13, NHERF1_1, O14745
T13 sequence (O14745 9-104, limits assumed, looked up): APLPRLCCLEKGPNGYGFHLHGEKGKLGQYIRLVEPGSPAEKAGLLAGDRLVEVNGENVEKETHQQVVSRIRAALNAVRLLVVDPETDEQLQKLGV
Assay: holdup assay
Design: key: below the threshold = too weak to quantify, mostly under pKd 3.1 to 4
Settings: plain residues with an end cap or a label only (N-terminal biotin on a linker: ttds)

Binder | pKd
SGSRPSATVV [HPV73-E6, Q82005] | below the threshold
RHTTSTETAV [HPV30-E6, P36809] | below the threshold

Biological target: DVL2, O14641
Sequence (O14641 260-359): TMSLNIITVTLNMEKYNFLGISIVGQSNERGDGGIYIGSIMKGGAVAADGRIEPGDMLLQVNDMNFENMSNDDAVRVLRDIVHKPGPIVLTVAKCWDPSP
Assay: holdup assay
Design: key: below the threshold = too weak to quantify, mostly under pKd 3.1 to 4
Settings: plain residues with an end cap or a label only (N-terminal biotin on a linker: ttds)

Binder | pKd
SGSRPSATVV [HPV73-E6, Q82005] | below the threshold
RHTTSTETAV [HPV30-E6, P36809] | below the threshold

Biological target: T14, MPP1, Q00013
T14 sequence (Q00013 66-162, limits assumed, looked up): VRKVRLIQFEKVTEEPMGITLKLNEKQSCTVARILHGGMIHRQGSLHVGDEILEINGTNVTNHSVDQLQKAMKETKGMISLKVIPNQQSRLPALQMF
Assay: holdup assay
Design: key: below the threshold = too weak to quantify, mostly under pKd 3.1 to 4
Settings: plain residues with an end cap or a label only (N-terminal biotin on a linker: ttds)

Binder | pKd
SGSRPSATVV [HPV73-E6, Q82005] | 4.14
RHTTSTETAV [HPV30-E6, P36809] | 5.17

Biological target: T15, GIPC1, O14908
T15 sequence (O14908 128-223, limits assumed, looked up): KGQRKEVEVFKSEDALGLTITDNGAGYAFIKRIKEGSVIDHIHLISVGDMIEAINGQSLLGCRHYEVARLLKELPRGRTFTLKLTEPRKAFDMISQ
Assay: holdup assay
Design: key: below the threshold = too weak to quantify, mostly under pKd 3.1 to 4
Settings: plain residues with an end cap or a label only (N-terminal biotin on a linker: ttds)

Binder | pKd
SGSRPSATVV [HPV73-E6, Q82005] | 4.64
RHTTSTETAV [HPV30-E6, P36809] | 4.7
